For the experiment, the target named is T1, human C-KIT-Fc (human, UniProt P10721 26-524).
T1 construct: also called biotinylated human C-KIT-Fc; not shown: Fc part not described
Put plainly: direct ELISA.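 Further: Plate-coated C-KIT-Fc (1 µg/ml) probed with antibodies for 1 hr, bound IgG detected via anti-human kappa-HRP and TMB, absorbance measured at 450 nm.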

From patent publication US20200283521A1 (GRANULAR THERAPEUTICS, published 2020) come the findings set out here.

B1: MH5.3 (antibody, IgG1, V domains shown)
VH: QVQLVQSGAEVKKPGASVKVSCKASGYTFTDHYMNWVRQAPGQGLEWMGRIYPGTGNTYYAQKFQGRVTMTRDTSTSTVYMELSSLRSEDTAVYYCARGVWYYDYWGQGTLVTVSS
VL: DIQMTQSPSSLSASVGDRVTITCRASQGIRTNLAWFQQKPGKAPKSLIYAASSLQSGVPSRFSGSGSGTDFTLTISSLQPEDFATYYCQQYANYPRTFGGGTKVEIK
notes: IgG1
For the molecule B1, the binding result is on record as “binds”.

B2: MH5.17 (antibody, IgG1, V domains shown)
VH: QVQLVQSGAEVKKPGASVKVSCKASGYTFTDFYMNWVRQAPGQGLEWMGRIYPGTGNTYYAQKFQGRVTMTRDTSTSTVYMELSSLRSEDTAVYYCARGVWYFDEWGQGTLVTVSS
VL: DIQMTQSPSSLSASVGDRVTITCRASQGIRTNLAWFQQKPGKAPKSLIYAASSLQSGVPSRFSGSGSGTDFTLTISSLQPEDFATYYCQQYANYPRTFGGGTKVEIK
notes: IgG1
Regarding B2, the binding result was “binds”.

B3: MH5.7 (antibody, IgG1, V domains shown)
VH: QVQLVQSGAEVKKPGASVKVSCKASGYTFTDHYMNWVRQAPGQGLEWMGRIYPGAGNTYYAQKFQGRVTMTRDTSTSTVYMELSSLRSEDTAVYYCARGVWYYDYWGQGTLVTVSS
VL: DIQMTQSPSSLSASVGDRVTITCRASQGIRTNLAWFQQKPGKAPKSLIYAASSLQSGVPSRFSGSGSGTDFTLTISSLQPEDFATYYCQQYANYPRTFGGGTKVEIK
notes: IgG1
For the molecule B3, the binding result was “binds”.

B4: MH5.18 (antibody, IgG1, V domains shown)
VH: QVQLVQSGAEVKKPGASVKVSCKASGYTFTDFYMNWVRQAPGQGLEWMGRIYPGAGNTYYAQKFQGRVTMTRDTSTSTVYMELSSLRSEDTAVYYCARGVWYYDYWGQGTLVTVSS
VL: DIQMTQSPSSLSASVGDRVTITCRASQGIRTNLAWFQQKPGKAPKSLIYAASSLQSGVPSRFSGSGSGTDFTLTISSLQPEDFATYYCQQYANYPRTFGGGTKVEIK
notes: IgG1
As to B4, the binding result is “binds”.

B5: MH5.12 (antibody, IgG1, V domains shown)
VH: QVQLVQSGAEVKKPGASVKVSCKASGYTFTDHYMNWVRQAPGQGLEWMGRIYPASGNTYYAQKFQGRVTMTRDTSTSTVYMELSSLRSEDTAVYYCARGVWYFDSWGQGTLVTVSS
VL: DIQMTQSPSSLSASVGDRVTITCRASQGIRTNLAWFQQKPGKAPKSLIYAASSLQSGVPSRFSGSGSGTDFTLTISSLQPEDFATYYCQQYANYPRTFGGGTKVEIK
notes: IgG1
For the molecule B5, the binding result is “binds”.

B6: MH5.8 (antibody, IgG1, V domains shown)
VH: QVQLVQSGAEVKKPGASVKVSCKASGYTFTDHYMNWVRQAPGQGLEWMGRIYPGAGNTYYAQKFQGRVTMTRDTSTSTVYMELSSLRSEDTAVYYCARGVWYFDSWGQGTLVTVSS
VL: DIQMTQSPSSLSASVGDRVTITCRASQGIRTNLAWFQQKPGKAPKSLIYAASSLQSGVPSRFSGSGSGTDFTLTISSLQPEDFATYYCQQYANYPRTFGGGTKVEIK
notes: IgG1
With B6, the binding result is “binds”.

B7: MH5.13 (antibody, IgG1, V domains shown)
VH: QVQLVQSGAEVKKPGASVKVSCKASGYTFTDHYMNWVRQAPGQGLEWMGRIYPASGNTYYAQKFQGRVTMTRDTSTSTVYMELSSLRSEDTAVYYCARGVWYFDTWGQGTLVTVSS
VL: DIQMTQSPSSLSASVGDRVTITCRASQGIRTNLAWFQQKPGKAPKSLIYAASSLQSGVPSRFSGSGSGTDFTLTISSLQPEDFATYYCQQYANYPRTFGGGTKVEIK
notes: IgG1
Regarding B7, the binding result was “binds”.

B8: MH5.14 (antibody, IgG1, V domains shown)
VH: QVQLVQSGAEVKKPGASVKVSCKASGYTFTDHYMNWVRQAPGQGLEWMGRIYPASGNTYYAQKFQGRVTMTRDTSTSTVYMELSSLRSEDTAVYYCARGVWYFDEWGQGTLVTVSS
VL: DIQMTQSPSSLSASVGDRVTITCRASQGIRTNLAWFQQKPGKAPKSLIYAASSLQSGVPSRFSGSGSGTDFTLTISSLQPEDFATYYCQQYANYPRTFGGGTKVEIK
notes: IgG1
Regarding B8, the binding result is listed as “binds”.

B9: MH5.20 (antibody, IgG1, V domains shown)
VH: QVQLVQSGAEVKKPGASVKVSCKASGYTFTDFYMNWVRQAPGQGLEWMGRIYPGAGNTYYAQKFQGRVTMTRDTSTSTVYMELSSLRSEDTAVYYCARGVWYFDTWGQGTLVTVSS
VL: DIQMTQSPSSLSASVGDRVTITCRASQGIRTNLAWFQQKPGKAPKSLIYAASSLQSGVPSRFSGSGSGTDFTLTISSLQPEDFATYYCQQYANYPRTFGGGTKVEIK
notes: IgG1
As to B9, the binding result is “binds”.

B10: MH5.11 (antibody, IgG1, V domains shown)
VH: QVQLVQSGAEVKKPGASVKVSCKASGYTFTDHYMNWVRQAPGQGLEWMGRIYPASGNTYYAQKFQGRVTMTRDTSTSTVYMELSSLRSEDTAVYYCARGVWYYDYWGQGTLVTVSS
VL: DIQMTQSPSSLSASVGDRVTITCRASQGIRTNLAWFQQKPGKAPKSLIYAASSLQSGVPSRFSGSGSGTDFTLTISSLQPEDFATYYCQQYANYPRTFGGGTKVEIK
notes: IgG1
For the molecule B10, the binding result is reported as “binds”.

B11: MH5.21 (antibody, IgG1, V domains shown)
VH: QVQLVQSGAEVKKPGASVKVSCKASGYTFTDFYMNWVRQAPGQGLEWMGRIYPGAGNTYYAQKFQGRVTMTRDTSTSTVYMELSSLRSEDTAVYYCARGVWYFDEWGQGTLVTVSS
VL: DIQMTQSPSSLSASVGDRVTITCRASQGIRTNLAWFQQKPGKAPKSLIYAASSLQSGVPSRFSGSGSGTDFTLTISSLQPEDFATYYCQQYANYPRTFGGGTKVEIK
notes: IgG1
For B11, the binding result was “binds”.

B12: MH5.19 (antibody, IgG1, V domains shown)
VH: QVQLVQSGAEVKKPGASVKVSCKASGYTFTDFYMNWVRQAPGQGLEWMGRIYPGAGNTYYAQKFQGRVTMTRDTSTSTVYMELSSLRSEDTAVYYCARGVWYFDSWGQGTLVTVSS
VL: DIQMTQSPSSLSASVGDRVTITCRASQGIRTNLAWFQQKPGKAPKSLIYAASSLQSGVPSRFSGSGSGTDFTLTISSLQPEDFATYYCQQYANYPRTFGGGTKVEIK
notes: IgG1
In the case of B12, the binding result is “binds”.

B13: MH5.16 (antibody, IgG1, V domains shown)
VH: QVQLVQSGAEVKKPGASVKVSCKASGYTFTDFYMNWVRQAPGQGLEWMGRIYPGTGNTYYAQKFQGRVTMTRDTSTSTVYMELSSLRSEDTAVYYCARGVWYFDTWGQGTLVTVSS
VL: DIQMTQSPSSLSASVGDRVTITCRASQGIRTNLAWFQQKPGKAPKSLIYAASSLQSGVPSRFSGSGSGTDFTLTISSLQPEDFATYYCQQYANYPRTFGGGTKVEIK
notes: IgG1
Take B13: the binding result is recorded as “binds”.

B14: MH5.5 (antibody, IgG1, V domains shown)
VH: QVQLVQSGAEVKKPGASVKVSCKASGYTFTDHYMNWVRQAPGQGLEWMGRIYPGTGNTYYAQKFQGRVTMTRDTSTSTVYMELSSLRSEDTAVYYCARGVWYFDTWGQGTLVTVSS
VL: DIQMTQSPSSLSASVGDRVTITCRASQGIRTNLAWFQQKPGKAPKSLIYAASSLQSGVPSRFSGSGSGTDFTLTISSLQPEDFATYYCQQYANYPRTFGGGTKVEIK
notes: IgG1
As for B14, the binding result is “binds”.

B15: MH5.9 (antibody, IgG1, V domains shown)
VH: QVQLVQSGAEVKKPGASVKVSCKASGYTFTDHYMNWVRQAPGQGLEWMGRIYPGAGNTYYAQKFQGRVTMTRDTSTSTVYMELSSLRSEDTAVYYCARGVWYFDTWGQGTLVTVSS
VL: DIQMTQSPSSLSASVGDRVTITCRASQGIRTNLAWFQQKPGKAPKSLIYAASSLQSGVPSRFSGSGSGTDFTLTISSLQPEDFATYYCQQYANYPRTFGGGTKVEIK
notes: IgG1
Consider B15, for which the binding result is “binds”.
